Legend:
HLA-DR1 (DRB1*0101) = biological target: T1, HLA-DR1 (DRB1*0101) (human); experiment: competition binding assay, purified HLA, 125I-labelled probe peptide, gel filtration
T1 construct: purified HLA class II molecule

HLA-DR4w4 (DRB1*0401) = biological target: T2, HLA-DR4w4 (DRB1*0401) (human); experiment: as above
T2 construct: purified HLA class II molecule

HLA-DR7 (DRB1*0701) = biological target: T3, HLA-DR7 (DRB1*0701) (human); experiment: as above
T3 construct: purified HLA class II molecule

HLA-A*0301 [1] = biological target: HLA-A*0301 (human); experiment: competition with 125I-labelled standard peptide for purified HLA; gel filtration
HLA-A*1101 [2] = biological target: HLA-A*1101 (human); experiment: as above
HLA-A*3101 [3] = biological target: HLA-A*3101 (human); experiment: as above
HLA-A*6801 [4] = biological target: HLA-A*6801 (human); experiment: as above
HLA-A*3301 [5] = biological target: HLA-A*3301 (human); experiment: as above
HLA-A*0301 [6] = biological target: T4, HLA-A*0301 (human); experiment: inhibition of 125I-labelled probe peptide binding to purified HLA-A*0301, gel filtration; ratio to standard peptide 941.12 [..] (11 nM); the negative sign is not explained
T4 construct: also called HLA-A3

HLA-A*0301 [7] = biological target: T5, HLA-A*0301 (human); experiment: competition with 125I-labelled standard peptide for purified HLA, gel filtration
T5 construct: also called A3

HLA-A*1101 [8] = biological target: T6, HLA-A*1101 (human); experiment: as above
T6 construct: The construct is not described

HLA-A*3101 [9] = biological target: T7, HLA-A*3101 (human); experiment: as above
T7 construct: The construct is not described

HLA-A*3301 [10] = biological target: T8, HLA-A*3301 (human); experiment: as above
T8 construct: The construct is not described

HLA-A*6801 [11] = biological target: T9, HLA-A*6801 (human); experiment: as above
T9 construct: The construct is not described

HLA-DRB1*0101 [12] = biological target: T10, HLA-DRB1*0101 (human); experiment: competition with 125I-labelled standard peptide, purified HLA-DR, gel filtration
T10 construct: purified MHC class II molecule; also called DR1

HLA-DRB1*0401 = biological target: T11, HLA-DRB1*0401 (human); experiment: as above
T11 construct: purified MHC class II molecule; also called DR4w4

HLA-DRB1*0802 = biological target: T12, HLA-DRB1*0802 (human); experiment: as above
T12 construct: purified MHC class II molecule; also called DR8w2

HLA-DRB1*1302 = biological target: T13, HLA-DRB1*1302 (human); experiment: as above
T13 construct: purified MHC class II molecule; also called DR6w19

HLA-DRB1*1501 [13] = biological target: T14, HLA-DRB1*1501 (human); experiment: as above
T14 construct: purified MHC class II molecule; also called DR2w2β1

HLA-DRB5*0101 = biological target: T15, HLA-DRB5*0101 (human); experiment: as above
T15 construct: purified MHC class II molecule; also called DR2w2β2

HLA-DRB1*0301 = biological target: T16, HLA-DRB1*0301 (human); experiment: competition with 125I-labeled standard peptide, purified HLA-DR, gel filtration
T16 construct: also called DR3

HLA-DRB1*0101 [14] = biological target: T17, HLA-DRB1*0101 (human); experiment: inhibition of 125I probe peptide binding to purified HLA-DR, gel filtration
T17 construct: Purified HLA molecule; also called DR1

HLA-DRB1*1501 [15] = biological target: T18, HLA-DRB1*1501 (human); experiment: as above
T18 construct: Purified HLA molecule; also called DR2w2β1

HLA-DRB1*0701 = biological target: T19, HLA-DRB1*0701 (human); experiment: competition with 125I probe peptide, purified HLA
T19 construct: also called DR7

[16] = biological target: T20, HLA-A*0201 (purified HLA class I molecule) (human); experiment: competition with 125I-labelled standard peptide for purified HLA, gel filtration
T20 construct: also called HLA-A2.1

[17] = biological target: HLA-A*0202 (purified HLA class I molecule) (human); experiment: as above
[18] = biological target: HLA-A*0203 (purified HLA class I molecule) (human); experiment: as above
[19] = biological target: HLA-A*0206 (purified HLA class I molecule) (human); experiment: as above
[20] = biological target: HLA-A*6802 (purified HLA class I molecule) (human); experiment: as above
HLA-DRB1*0101 [21] = biological target: T17, HLA-DRB1*0101; experiment: inhibition of 125I probe peptide binding to purified HLA-DR, gel filtration; remark: listed apart in the source

In the case of QGFFCPDPAPGAGGM (also called Her2/neu.1028) [HER2/neu peptide QGFFCPDPAPGAGGM (position 1028)], the relative binding ratio (HLA-DR1 (DRB1*0101)) is reported as -0.0005 ratio to standard peptide, the relative binding ratio (HLA-DR4w4 (DRB1*0401)) is reported as 0.023 ratio to standard peptide and the relative binding ratio (HLA-DR7 (DRB1*0701)) is reported as -0.0011 ratio to standard peptide.

Work on AVPLDSTFYR [Her2/neu.997.V2] yielded an IC50 (HLA-A*0301 [1]) of over 110000 nM, an IC50 (HLA-A*1101 [2]) of 88 nM and an IC50 (HLA-A*3101 [3]) of 30 µM. It also gave an IC50 (HLA-A*6801 [4]) of 73 nM.

AVPLDSTFYK [Her2/neU.997.V2K10] was tested, and the IC50 (HLA-A*0301 [1]) was 550 nM, the IC50 (HLA-A*1101 [2]) was 33 nM and the IC50 (HLA-A*3101 [3]) was 1.5 µM. It also gave an IC50 (HLA-A*3301 [5]) of 22.3 µM and an IC50 (HLA-A*6801 [4]) of 229 nM.

B1: HER2/neu peptide, position 1173, 10 amino acids (peptide)
peptide: LSPGKNGVVK
notes: Synthetic peptide; also called Her2/neu.1173 (10-mer)
With B1 the “relative binding ratio (IC50 of standard peptide / IC50 of test peptide)” value (HLA-A*0301 [6]) was -0.0002.

B2: HER2/neu peptide, position 1162, 10 amino acids (peptide)
peptide: PAGATLERPK
notes: Synthetic peptide; also called Her2/neu.1162 (10-mer)
With B2 the “relative binding ratio (IC50 of standard peptide / IC50 of test peptide)” value (HLA-A*0301 [6]) was -0.0002.

B3: HER2/neu peptide, position 322, 9 amino acids (peptide)
peptide: VTAEDGTQR
notes: Synthetic peptide; also called Her2/neu.322 (9-mer)
For B3, the relative binding ratio (HLA-A*0301 [7]) was 0.0002 ratio (IC50 of standard peptide / IC50 of test peptide), the relative binding ratio (HLA-A*1101 [8]) was 0.014 ratio (IC50 of standard peptide / IC50 of test peptide) and the relative binding ratio (HLA-A*3101 [9]) was 0.0011 ratio (IC50 of standard peptide / IC50 of test peptide). The relative binding ratio (HLA-A*3301 [10]) was 0.0037 ratio (IC50 of standard peptide / IC50 of test peptide) and the relative binding ratio (HLA-A*6801 [11]) was 0.1 ratio (IC50 of standard peptide / IC50 of test peptide).

With DEAYVMAGVGSPYVS [Her2/neu.769] the IC50 (HLA-DRB1*0101 [12]) was 100 nM, the IC50 (HLA-DRB1*0401) was 196 nM and the IC50 (HLA-DRB1*0802) was 860 nM. The IC50 (HLA-DRB1*1302) was 1750 nM, the IC50 (HLA-DRB1*1501 [13]) was 3.14 µM and the IC50 (HLA-DRB5*0101) was 833 nM.

Binder QMRILKETELRKVKV [Her2/neu.711] has an IC50 (HLA-DRB5*0101) of 34 nM.

B4: HER2/neu DR supermotif exemplary peptide PSGVKPDLSYMPIWK (position 601) (peptide)
peptide: PSGVKPDLSYMPIWK
notes: synthetic 15-mer; also called Her2/neu.601
In the case of B4, the relative binding ratio (HLA-DRB1*0301) is reported as -0.0027 ratio (standard IC50 / test IC50).

In the case of KVPIKWMALESILRR (Synthetic peptide) [Her2/neu.883], the IC50 (HLA-DRB1*0101 [14]) is reported as 2.3 nM and the IC50 (HLA-DRB1*1501 [15]) is reported as 3.4 nM.

B5: HER2/neu DR supermotif exemplary peptide KGPLPTDCCHEQCAA (position 228) (peptide)
peptide: KGPLPTDCCHEQCAA
notes: synthetic 15-mer; also called Her2/neu.228
For B5, the relative binding ratio (HLA-DRB1*0301) was -0.0027 ratio (standard IC50 / test IC50).

QPPICTIDVYMIMVK [Her2/neu.943] was tested, and the IC50 (HLA-DRB1*0701) was 250 nM.

B6: HER2/neu peptide, position 799, 9 amino acids (peptide)
peptide: QLMPYGCLL
notes: Synthetic peptide; also called Her2/neu.799
With B6 the “relative binding ratio (IC50 of standard peptide / IC50 of test peptide)” value [16] was 0.023 ratio, the “relative binding ratio (IC50 of standard peptide / IC50 of test peptide)” value [17] was 0.0044 ratio and the “relative binding ratio (IC50 of standard peptide / IC50 of test peptide)” value [18] was 0.088 ratio. The “relative binding ratio (IC50 of standard peptide / IC50 of test peptide)” value [19] was 0.0052 ratio and the “relative binding ratio (IC50 of standard peptide / IC50 of test peptide)” value [20] was 0.0031 ratio.

In the case of QPDVRPQPPSPREGP (Synthetic peptide) [Her2/neu.1142], the IC50 (HLA-DRB1*0101 [21]) is reported as 7.14 µM.
